Series [1] addresses T1, RsmA (Pseudomonas aeruginosa M18, UniProt O69078 1-61). Briefly: SPR; biotin-RNA on SA chip; 200 mM NaCl, 20 mM Tris-HCl pH 8.0, 1 mM EDTA, 1 mM DTT; 25 C; EMSA: 200 mM KCl, 100 mM HEPES pH 7.3, 10 mM MgCl2, 2 ug tRNA, 5% glycerol, 10 mM DTT, room temp 30 min, 1 nM RNA; SPR: 200 mM NaCl, 20 mM Tris-HCl pH 8.0, 1 mM EDTA, 1 mM DTT, 25 C. The note with it: protein: recombinant; tags: C-terminal His tag; chain copies: 2; label: 3' biotin. Background: In SPR one partner is held on a chip, and binding of the other changes the refractive index at the surface.

Series [2] deals with T1, RsmA. The series is described as follows: EMSA; RsmA 0-400 nM; EMSA: 200 mM KCl, 100 mM HEPES pH 7.3, 10 mM MgCl2, 2 ug tRNA, 5% glycerol, 10 mM DTT, room temp 30 min, 1 nM RNA; SPR: 200 mM NaCl, 20 mM Tris-HCl pH 8.0, 1 mM EDTA, 1 mM DTT, 25 C. As to conditions: protein: recombinant; tags: C-terminal His tag; chain copies: 2; label: 3' biotin. A general note: A gel shift assay detects complexes by their altered migration in electrophoresis.

T1 sequence (O69078 whole entry): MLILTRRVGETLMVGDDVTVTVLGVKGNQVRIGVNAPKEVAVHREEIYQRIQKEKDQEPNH

The Kd is the equilibrium constant for the complex coming apart. On to UCUUCUUUCCGGUAUGGAUGCCAGUCGAUUC (ssRNA) [phz2-S3], for which, in the series with RsmA [1], the Kd amounted to 54.5 nM.

Turning to UCUUCUUUCCGGUAUUUCUGCCAGUCGAUUC (ssRNA) [phz2-S3M], the binding result with RsmA [2] is recorded as “no binding”.

Regarding GGGCAACUUUUGCCCGGAAAAAGCUUCACGGCAAUUUCUC (ssRNA) [phz2-S2], the binding result with RsmA [2] is reported as “no binding”.

Take GGCAAUUCGGCAUUAGUUGAAACUUUGGAGACGCUCCGAA (ssRNA) [phz2-S1]: the binding result with RsmA [2] was “no binding”.
